For assay [1], the target named is TssK (V. cholerae (endogenous)). The experiment in a line: cryo-EM structure.
Assay [2] has as its target VgrG trimer of the central spike (V. cholerae (endogenous)). The experiment in a line: cryo-EM structure.

As a reminder, the stoichiometry N is a count of units in the complex or per binding partner.

In assay [1], TssK (natural protein) showed a stoichiometry N of 3.
As for VgrG trimer of the central spike, the stoichiometry N in assay [2] worked out at 3.
